Target: human CLEC14A (endogenous, in HUVECs) (human) (UniProt Q86T13)
Assay: cell-based or functional assay

Chain of UniProt Q86T13 (Q86T13 22-490): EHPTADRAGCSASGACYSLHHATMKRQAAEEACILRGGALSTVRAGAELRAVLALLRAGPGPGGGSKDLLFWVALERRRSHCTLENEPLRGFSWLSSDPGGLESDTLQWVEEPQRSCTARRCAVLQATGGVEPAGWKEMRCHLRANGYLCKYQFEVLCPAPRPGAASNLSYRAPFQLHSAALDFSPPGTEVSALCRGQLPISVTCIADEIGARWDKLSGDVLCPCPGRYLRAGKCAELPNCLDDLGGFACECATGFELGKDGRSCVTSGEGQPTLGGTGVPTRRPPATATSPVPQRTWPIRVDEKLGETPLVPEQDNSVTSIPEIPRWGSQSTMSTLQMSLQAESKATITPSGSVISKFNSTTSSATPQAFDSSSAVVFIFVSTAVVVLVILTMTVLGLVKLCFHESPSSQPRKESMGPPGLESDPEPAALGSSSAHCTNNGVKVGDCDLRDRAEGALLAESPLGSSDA

B1: anti-CLEC14A monoclonal antibody CRT-3 (antibody, from another filing, IgG1, V domains shown)
VH: EVQLQQSGTVLARPGASVKMSCKASGYTFTSYWMHWVKQRPGQGLEWIGAIYPGNSDTSYNQKFKGKAKLTAVTSTSTAYMELSSLTNEDSAVFYCTHYYGSDYAMDYWGQGTSVTV
VL: QIVLTQSPAIMSASLGERVTMTCTASSSVSSSYLHWYQQKPGSSPKLWIYSTSNLASGVPARFSGSGSGTSYSLTISSMEAEDAATYYCHQYHRSPRTFGGGTKLEIKR
- wound area remaining open at 12 h, HUVEC scratch wound healing assay, 10 µg/ml antibody: 25%
